Measurements from IntAct's records for PubMed 35512704.

B1: Speckle-type POZ protein (Homo sapiens), O43791 (parent)
chain: MSRVPSPPPPAEMSSGPVAESWCYTQIKVVKFSYMWTINNFSFCREEMGEVIKSSTFSSGANDKLKWCLRVNPKGLDEESKDYLSLYLLLVSCPKSEVRAKFKFSILNAKGEETKAMESQRAYRFVQGKDWGFKKFIRRDFLLDEANGLLPDDKLTLFCEVSVVQDSVNISGQNTMNMVKVPECRLADELGGLWENSRFTDCCLCVAGQEFQAHKAILAARSPVFSAMFEHEMEESKKNRVEINDVEPEVFKEMMCFIYTGKAPNLDKMADDLLAAADKYALERLKVMCEDALCSNLSVENAAEILILADLHSADQLKTQAVDFINYHASDVLETSGWKSMVVSHPHLVAEAYRSLASAQCPFLGPPRKRLKQS

Variants of: B1
Details: with hdac3_human HDAC3, O15379
Sequence of hdac3_human HDAC3, O15379 (O15379 whole entry): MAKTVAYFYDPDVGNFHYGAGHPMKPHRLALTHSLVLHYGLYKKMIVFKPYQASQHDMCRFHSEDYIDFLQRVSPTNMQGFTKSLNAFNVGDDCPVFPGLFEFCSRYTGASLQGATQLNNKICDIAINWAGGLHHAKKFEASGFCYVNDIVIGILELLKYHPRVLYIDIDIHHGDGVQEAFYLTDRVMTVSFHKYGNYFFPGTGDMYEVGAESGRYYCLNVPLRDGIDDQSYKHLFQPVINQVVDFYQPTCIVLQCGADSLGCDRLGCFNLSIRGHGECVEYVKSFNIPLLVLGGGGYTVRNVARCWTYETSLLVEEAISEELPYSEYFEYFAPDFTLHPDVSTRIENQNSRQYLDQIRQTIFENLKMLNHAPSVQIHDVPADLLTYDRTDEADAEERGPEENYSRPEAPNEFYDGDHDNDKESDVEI

effect of a mutation on the interaction	Variant
with no effect	MSRVPSPPPPAEMSSGPVAESWCYTQIKVVKFSYMWTINNFSFCREEMGEVIKSSTFSSGANDKLKWCLRVNPKGLDEESKDYLSLYLLLVSCPKSEVRAKFKFSILNAKGEETKAMESQRAYRFVQGKDWGLKKFIRRDFLLDEANGLLPDDKLTLFCEVSVVQDSVNISGQNTMNMVKVPECRLADELGGLWENSRFTDCCLCVAGQEFQAHKAILAARSPVFSAMFEHEMEESKKNRVEINDVEPEVFKEMMCFIYTGKAPNLDKMADDLLAAADKYALERLKVMCEDALCSNLSVENAAEILILADLHSADQLKTQAVDFINYHASDVLETSGWKSMVVSHPHLVAEAYRSLASAQCPFLGPPRKRLKQS [F133L]

Variants of: B1
Details: with hgf_human HGF

effect of a mutation on the interaction	Variant
with no effect	MSRVPSPPPPAEMSSGPVAESWCYTQIKVVKFSYMWTINNFSFCREEMGEVIKSSTFSSGANDKLKWCLRVNPKGLDEESKDYLSLYLLLVSCPKSEVRAKFKFSILNAKGEETKAMESQRAYRFVQGKDWGLKKFIRRDFLLDEANGLLPDDKLTLFCEVSVVQDSVNISGQNTMNMVKVPECRLADELGGLWENSRFTDCCLCVAGQEFQAHKAILAARSPVFSAMFEHEMEESKKNRVEINDVEPEVFKEMMCFIYTGKAPNLDKMADDLLAAADKYALERLKVMCEDALCSNLSVENAAEILILADLHSADQLKTQAVDFINYHASDVLETSGWKSMVVSHPHLVAEAYRSLASAQCPFLGPPRKRLKQS [F133L]

Variants of: B1
Details: with h31_human H3C1, P68431

effect of a mutation on the interaction	Variant
with no effect	MSRVPSPPPPAEMSSGPVAESWCYTQIKVVKFSYMWTINNFSFCREEMGEVIKSSTFSSGANDKLKWCLRVNPKGLDEESKDYLSLYLLLVSCPKSEVRAKFKFSILNAKGEETKAMESQRAYRFVQGKDWGLKKFIRRDFLLDEANGLLPDDKLTLFCEVSVVQDSVNISGQNTMNMVKVPECRLADELGGLWENSRFTDCCLCVAGQEFQAHKAILAARSPVFSAMFEHEMEESKKNRVEINDVEPEVFKEMMCFIYTGKAPNLDKMADDLLAAADKYALERLKVMCEDALCSNLSVENAAEILILADLHSADQLKTQAVDFINYHASDVLETSGWKSMVVSHPHLVAEAYRSLASAQCPFLGPPRKRLKQS [F133L]

Variants of: B1
Details: with hlab_human HLA-B

effect of a mutation on the interaction	Variant
with no effect	MSRVPSPPPPAEMSSGPVAESWCYTQIKVVKFSYMWTINNFSFCREEMGEVIKSSTFSSGANDKLKWCLRVNPKGLDEESKDYLSLYLLLVSCPKSEVRAKFKFSILNAKGEETKAMESQRAYRFVQGKDWGLKKFIRRDFLLDEANGLLPDDKLTLFCEVSVVQDSVNISGQNTMNMVKVPECRLADELGGLWENSRFTDCCLCVAGQEFQAHKAILAARSPVFSAMFEHEMEESKKNRVEINDVEPEVFKEMMCFIYTGKAPNLDKMADDLLAAADKYALERLKVMCEDALCSNLSVENAAEILILADLHSADQLKTQAVDFINYHASDVLETSGWKSMVVSHPHLVAEAYRSLASAQCPFLGPPRKRLKQS [F133L]

Variants of: B1
Details: with hnf1a_human HNF1A

effect of a mutation on the interaction	Variant
with no effect	MSRVPSPPPPAEMSSGPVAESWCYTQIKVVKFSYMWTINNFSFCREEMGEVIKSSTFSSGANDKLKWCLRVNPKGLDEESKDYLSLYLLLVSCPKSEVRAKFKFSILNAKGEETKAMESQRAYRFVQGKDWGLKKFIRRDFLLDEANGLLPDDKLTLFCEVSVVQDSVNISGQNTMNMVKVPECRLADELGGLWENSRFTDCCLCVAGQEFQAHKAILAARSPVFSAMFEHEMEESKKNRVEINDVEPEVFKEMMCFIYTGKAPNLDKMADDLLAAADKYALERLKVMCEDALCSNLSVENAAEILILADLHSADQLKTQAVDFINYHASDVLETSGWKSMVVSHPHLVAEAYRSLASAQCPFLGPPRKRLKQS [F133L]

Variants of: B1
Details: with igf1r_human IGF1R

effect of a mutation on the interaction	Variant
with no effect	MSRVPSPPPPAEMSSGPVAESWCYTQIKVVKFSYMWTINNFSFCREEMGEVIKSSTFSSGANDKLKWCLRVNPKGLDEESKDYLSLYLLLVSCPKSEVRAKFKFSILNAKGEETKAMESQRAYRFVQGKDWGLKKFIRRDFLLDEANGLLPDDKLTLFCEVSVVQDSVNISGQNTMNMVKVPECRLADELGGLWENSRFTDCCLCVAGQEFQAHKAILAARSPVFSAMFEHEMEESKKNRVEINDVEPEVFKEMMCFIYTGKAPNLDKMADDLLAAADKYALERLKVMCEDALCSNLSVENAAEILILADLHSADQLKTQAVDFINYHASDVLETSGWKSMVVSHPHLVAEAYRSLASAQCPFLGPPRKRLKQS [F133L]

Variants of: B1
Details: with il7ra_human IL7R

effect of a mutation on the interaction	Variant
with no effect	MSRVPSPPPPAEMSSGPVAESWCYTQIKVVKFSYMWTINNFSFCREEMGEVIKSSTFSSGANDKLKWCLRVNPKGLDEESKDYLSLYLLLVSCPKSEVRAKFKFSILNAKGEETKAMESQRAYRFVQGKDWGLKKFIRRDFLLDEANGLLPDDKLTLFCEVSVVQDSVNISGQNTMNMVKVPECRLADELGGLWENSRFTDCCLCVAGQEFQAHKAILAARSPVFSAMFEHEMEESKKNRVEINDVEPEVFKEMMCFIYTGKAPNLDKMADDLLAAADKYALERLKVMCEDALCSNLSVENAAEILILADLHSADQLKTQAVDFINYHASDVLETSGWKSMVVSHPHLVAEAYRSLASAQCPFLGPPRKRLKQS [F133L]

Variants of: B1
Details: with int12_human INTS12, Q96CB8
Sequence of int12_human INTS12, Q96CB8 (Q96CB8 whole entry): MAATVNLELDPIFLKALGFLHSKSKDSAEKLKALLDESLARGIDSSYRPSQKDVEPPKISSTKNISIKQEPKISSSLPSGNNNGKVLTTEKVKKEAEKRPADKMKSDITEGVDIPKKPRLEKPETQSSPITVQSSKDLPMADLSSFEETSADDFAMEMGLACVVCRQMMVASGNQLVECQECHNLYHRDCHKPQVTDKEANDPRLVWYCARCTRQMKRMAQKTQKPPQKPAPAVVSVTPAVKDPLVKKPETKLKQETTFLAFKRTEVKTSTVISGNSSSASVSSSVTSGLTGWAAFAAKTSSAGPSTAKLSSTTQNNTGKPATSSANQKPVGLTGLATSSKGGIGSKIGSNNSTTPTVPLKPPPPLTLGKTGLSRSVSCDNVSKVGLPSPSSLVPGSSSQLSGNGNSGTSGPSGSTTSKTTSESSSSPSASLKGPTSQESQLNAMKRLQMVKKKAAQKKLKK

effect of a mutation on the interaction	Variant
with no effect	MSRVPSPPPPAEMSSGPVAESWCYTQIKVVKFSYMWTINNFSFCREEMGEVIKSSTFSSGANDKLKWCLRVNPKGLDEESKDYLSLYLLLVSCPKSEVRAKFKFSILNAKGEETKAMESQRAYRFVQGKDWGLKKFIRRDFLLDEANGLLPDDKLTLFCEVSVVQDSVNISGQNTMNMVKVPECRLADELGGLWENSRFTDCCLCVAGQEFQAHKAILAARSPVFSAMFEHEMEESKKNRVEINDVEPEVFKEMMCFIYTGKAPNLDKMADDLLAAADKYALERLKVMCEDALCSNLSVENAAEILILADLHSADQLKTQAVDFINYHASDVLETSGWKSMVVSHPHLVAEAYRSLASAQCPFLGPPRKRLKQS [F133L]

Variants of: B1
Details: with ist1_human IST1, P53990
Sequence of ist1_human IST1, P53990 (P53990 whole entry): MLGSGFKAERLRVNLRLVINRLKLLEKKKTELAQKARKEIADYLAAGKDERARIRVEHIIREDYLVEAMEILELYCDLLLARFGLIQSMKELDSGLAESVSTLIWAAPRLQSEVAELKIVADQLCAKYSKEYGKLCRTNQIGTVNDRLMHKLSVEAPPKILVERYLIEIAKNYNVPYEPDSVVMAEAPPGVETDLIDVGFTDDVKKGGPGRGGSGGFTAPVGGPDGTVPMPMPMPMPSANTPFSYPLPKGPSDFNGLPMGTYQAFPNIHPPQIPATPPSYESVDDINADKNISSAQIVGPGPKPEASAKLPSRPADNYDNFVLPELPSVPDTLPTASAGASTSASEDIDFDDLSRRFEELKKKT

effect of a mutation on the interaction	Variant
with no effect	MSRVPSPPPPAEMSSGPVAESWCYTQIKVVKFSYMWTINNFSFCREEMGEVIKSSTFSSGANDKLKWCLRVNPKGLDEESKDYLSLYLLLVSCPKSEVRAKFKFSILNAKGEETKAMESQRAYRFVQGKDWGLKKFIRRDFLLDEANGLLPDDKLTLFCEVSVVQDSVNISGQNTMNMVKVPECRLADELGGLWENSRFTDCCLCVAGQEFQAHKAILAARSPVFSAMFEHEMEESKKNRVEINDVEPEVFKEMMCFIYTGKAPNLDKMADDLLAAADKYALERLKVMCEDALCSNLSVENAAEILILADLHSADQLKTQAVDFINYHASDVLETSGWKSMVVSHPHLVAEAYRSLASAQCPFLGPPRKRLKQS [F133L]

Variants of: B1
Details: with jak3_human JAK3, P52333
Sequence of jak3_human JAK3, P52333 (P52333 whole entry): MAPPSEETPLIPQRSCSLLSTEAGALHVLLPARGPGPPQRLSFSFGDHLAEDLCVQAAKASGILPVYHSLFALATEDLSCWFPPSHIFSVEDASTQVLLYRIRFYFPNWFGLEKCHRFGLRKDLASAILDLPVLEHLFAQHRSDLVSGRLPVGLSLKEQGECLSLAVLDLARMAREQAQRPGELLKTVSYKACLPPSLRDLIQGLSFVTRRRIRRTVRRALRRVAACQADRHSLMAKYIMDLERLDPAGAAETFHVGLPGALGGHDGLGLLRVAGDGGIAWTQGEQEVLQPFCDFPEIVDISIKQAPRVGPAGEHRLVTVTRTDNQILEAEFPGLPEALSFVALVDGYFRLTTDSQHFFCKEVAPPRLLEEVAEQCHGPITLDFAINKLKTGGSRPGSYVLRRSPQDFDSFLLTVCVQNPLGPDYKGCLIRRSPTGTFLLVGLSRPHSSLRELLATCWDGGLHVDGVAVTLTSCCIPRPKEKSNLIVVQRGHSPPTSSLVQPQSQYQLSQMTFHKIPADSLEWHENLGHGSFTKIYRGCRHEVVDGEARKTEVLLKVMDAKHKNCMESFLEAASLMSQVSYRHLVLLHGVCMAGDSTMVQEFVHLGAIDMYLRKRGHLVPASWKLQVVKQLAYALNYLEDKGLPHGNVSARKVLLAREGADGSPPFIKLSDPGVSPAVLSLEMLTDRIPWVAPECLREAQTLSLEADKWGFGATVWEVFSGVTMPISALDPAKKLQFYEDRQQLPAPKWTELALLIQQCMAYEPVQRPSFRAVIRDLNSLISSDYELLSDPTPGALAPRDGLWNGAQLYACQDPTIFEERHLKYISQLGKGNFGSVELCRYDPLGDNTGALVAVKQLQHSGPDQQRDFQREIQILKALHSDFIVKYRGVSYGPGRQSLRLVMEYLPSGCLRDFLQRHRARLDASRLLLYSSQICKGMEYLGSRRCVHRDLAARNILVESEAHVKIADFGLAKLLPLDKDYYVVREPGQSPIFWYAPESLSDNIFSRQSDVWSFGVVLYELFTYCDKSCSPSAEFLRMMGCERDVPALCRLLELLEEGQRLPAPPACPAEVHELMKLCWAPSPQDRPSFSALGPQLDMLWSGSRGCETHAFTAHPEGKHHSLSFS

effect of a mutation on the interaction	Variant
with no effect	MSRVPSPPPPAEMSSGPVAESWCYTQIKVVKFSYMWTINNFSFCREEMGEVIKSSTFSSGANDKLKWCLRVNPKGLDEESKDYLSLYLLLVSCPKSEVRAKFKFSILNAKGEETKAMESQRAYRFVQGKDWGLKKFIRRDFLLDEANGLLPDDKLTLFCEVSVVQDSVNISGQNTMNMVKVPECRLADELGGLWENSRFTDCCLCVAGQEFQAHKAILAARSPVFSAMFEHEMEESKKNRVEINDVEPEVFKEMMCFIYTGKAPNLDKMADDLLAAADKYALERLKVMCEDALCSNLSVENAAEILILADLHSADQLKTQAVDFINYHASDVLETSGWKSMVVSHPHLVAEAYRSLASAQCPFLGPPRKRLKQS [F133L]

Variants of: B1
Details: with kat2a_human KAT2A

effect of a mutation on the interaction	Variant
with no effect	MSRVPSPPPPAEMSSGPVAESWCYTQIKVVKFSYMWTINNFSFCREEMGEVIKSSTFSSGANDKLKWCLRVNPKGLDEESKDYLSLYLLLVSCPKSEVRAKFKFSILNAKGEETKAMESQRAYRFVQGKDWGLKKFIRRDFLLDEANGLLPDDKLTLFCEVSVVQDSVNISGQNTMNMVKVPECRLADELGGLWENSRFTDCCLCVAGQEFQAHKAILAARSPVFSAMFEHEMEESKKNRVEINDVEPEVFKEMMCFIYTGKAPNLDKMADDLLAAADKYALERLKVMCEDALCSNLSVENAAEILILADLHSADQLKTQAVDFINYHASDVLETSGWKSMVVSHPHLVAEAYRSLASAQCPFLGPPRKRLKQS [F133L]

Variants of: B1
Details: with kdm5a_human KDM5A

effect of a mutation on the interaction	Variant
with no effect	MSRVPSPPPPAEMSSGPVAESWCYTQIKVVKFSYMWTINNFSFCREEMGEVIKSSTFSSGANDKLKWCLRVNPKGLDEESKDYLSLYLLLVSCPKSEVRAKFKFSILNAKGEETKAMESQRAYRFVQGKDWGLKKFIRRDFLLDEANGLLPDDKLTLFCEVSVVQDSVNISGQNTMNMVKVPECRLADELGGLWENSRFTDCCLCVAGQEFQAHKAILAARSPVFSAMFEHEMEESKKNRVEINDVEPEVFKEMMCFIYTGKAPNLDKMADDLLAAADKYALERLKVMCEDALCSNLSVENAAEILILADLHSADQLKTQAVDFINYHASDVLETSGWKSMVVSHPHLVAEAYRSLASAQCPFLGPPRKRLKQS [F133L]

Variants of: B1
Details: with kdm5c_human KDM5C

effect of a mutation on the interaction	Variant
with no effect	MSRVPSPPPPAEMSSGPVAESWCYTQIKVVKFSYMWTINNFSFCREEMGEVIKSSTFSSGANDKLKWCLRVNPKGLDEESKDYLSLYLLLVSCPKSEVRAKFKFSILNAKGEETKAMESQRAYRFVQGKDWGLKKFIRRDFLLDEANGLLPDDKLTLFCEVSVVQDSVNISGQNTMNMVKVPECRLADELGGLWENSRFTDCCLCVAGQEFQAHKAILAARSPVFSAMFEHEMEESKKNRVEINDVEPEVFKEMMCFIYTGKAPNLDKMADDLLAAADKYALERLKVMCEDALCSNLSVENAAEILILADLHSADQLKTQAVDFINYHASDVLETSGWKSMVVSHPHLVAEAYRSLASAQCPFLGPPRKRLKQS [F133L]

Variants of: B1
Details: with kdm6a_human KDM6A

effect of a mutation on the interaction	Variant
with no effect	MSRVPSPPPPAEMSSGPVAESWCYTQIKVVKFSYMWTINNFSFCREEMGEVIKSSTFSSGANDKLKWCLRVNPKGLDEESKDYLSLYLLLVSCPKSEVRAKFKFSILNAKGEETKAMESQRAYRFVQGKDWGLKKFIRRDFLLDEANGLLPDDKLTLFCEVSVVQDSVNISGQNTMNMVKVPECRLADELGGLWENSRFTDCCLCVAGQEFQAHKAILAARSPVFSAMFEHEMEESKKNRVEINDVEPEVFKEMMCFIYTGKAPNLDKMADDLLAAADKYALERLKVMCEDALCSNLSVENAAEILILADLHSADQLKTQAVDFINYHASDVLETSGWKSMVVSHPHLVAEAYRSLASAQCPFLGPPRKRLKQS [F133L]

Variants of: B1
Details: with vgfr2_human KDR

effect of a mutation on the interaction	Variant
with no effect	MSRVPSPPPPAEMSSGPVAESWCYTQIKVVKFSYMWTINNFSFCREEMGEVIKSSTFSSGANDKLKWCLRVNPKGLDEESKDYLSLYLLLVSCPKSEVRAKFKFSILNAKGEETKAMESQRAYRFVQGKDWGLKKFIRRDFLLDEANGLLPDDKLTLFCEVSVVQDSVNISGQNTMNMVKVPECRLADELGGLWENSRFTDCCLCVAGQEFQAHKAILAARSPVFSAMFEHEMEESKKNRVEINDVEPEVFKEMMCFIYTGKAPNLDKMADDLLAAADKYALERLKVMCEDALCSNLSVENAAEILILADLHSADQLKTQAVDFINYHASDVLETSGWKSMVVSHPHLVAEAYRSLASAQCPFLGPPRKRLKQS [F133L]
